# Assay results as given in patent US5807729A, “Metalloprotease having increased activity” (Novo Nordisk A/S, priority 1995, dated 1998).
# Where two headings read alike, the source gives them in different places.
# Tests used:
# [1] = biological target: succinylated casein
# [2] = biological target: FTC-labeled casein
# [3] = biological target: succinylated casein; remark: listed apart in the source
# [4] = biological target: pro-trypsin-like Fusarium oxysporum protease (Fusarium oxysporum) (UniProt P35049)
# [5] = system: Fusarium oxysporum metalloprotease; experiment: Inhibition of Fusarium metalloprotease with 1,10-phenanthroline / EDTA and reactivation with Zn2+; assay type: biochemical
# Protocol: (§1) Metalloprotease activity is measured as released trypsin activity from pro-trypsin-like Fusarium oxysporum protease deposited at the Deutsche Sammlung von Mikroorganismen, Gottingen, Germany under the number DSM 2672, after a 30-60 min pre-incubation at 25° C. in 0.1M Tris, 2 mM CaCl2, pH 7 (at lower pH, 100 mM borate, 10 mM DMG, 2 mM CaCl2 is used).
# (§2) Metalloproteases contain a catalytic zinc metal center which participates in the hydrolysis of the peptide backbone. The active zinc center differentiates these proteases from calpains whose activities are dependent upon the presence of calcium. Confirmation of a protease as a metallo-protease is loss of proteolytic activity accomplished by removal of the zinc center with 1,10-phenanthroline (1 mM) followed by titration with Zn^2+ (0.1-100 μM) to restore full activity.
# (§3) However, when combined the metalloprotease cleaves recombinant pro-trypsin-like Fusarium oxysporum protease disclosed, supra to yield the active tryptic protease. Metalloprotease activity is halted upon the addition of 1 mM 1,10-phenanthroline (Table 1).
# [6] = system: Bacillus stearothermophilus thermolysin; experiment: Inhibitor analysis of B.s. thermolysin; assay type: biochemical; conditions: for type of inhibition, B.s. Thermolysin: kinetic analysis; for Ki: read-out: Inhibition Constant (Ki), B.s. Thermolysin
# Protocol: (§4) Other metalloprotease inhibitors are utilized to further differentiate the p45 metalloprotease from the Bacillus thermolysins. Inhibition constants for 1,10-phenanthroline, phosphoramidon, and CdCl2 are determined to be 130 uM, 1 uM, and 67 uM against the p45 Metalloprotease (Table 3). Inhibition constants for 1,10-phenanthroline, phosphoramidon, and CdCl2 are 85 uM, 26 uM, and 2 uM against the Bacillus stearothermophilus thermolysin. […] It is of interest to note that phophoramidon is an effective inhibitor of many bacterial metallo-endopeptidases but few of mammalian origin. Also, it is interesting that CdCl2 is found to be such an effective inhibitor of metalloproteases. No evidence of CdCl2 inhibition of metalloproteases has been found in the literature.
# [7] = biological target: p45 Metalloprotease (Fusarium oxysporum, UniProt M1UZ70); experiment: Inhibitor analysis of the p45 metalloprotease; assay type: biochemical; design: precursor 632 aa (18 signal, 226 pro); native or A. oryzae-expressed with same N-terminus; conditions: for type of inhibition, p45 Maturase: kinetic analysis
# Protocol: as §4
# [8] = system: succinyl-Ala-Ala-Ala-p-nitroanilide; experiment: Hydrolysis of succinyl-Ala-Ala-Ala-p-nitroanilide; assay type: biochemical
# Excerpt: Both p45 metalloprotease and a neutral zinc endopeptidase secreted by Flavobacterium meningosepticum poorly hydrolyze the substrate N-[3-(2--furyl)acryloyl]-Leu-Gly-NH2. However, the neutral zinc endopeptidase secreted by Flavobacterium meningosepticum will hydrolyze the vertebrate elastase substrate succinyl-Ala-Ala-Ala-p-nitroanilide, a substrate that thermolysin cannot hydrolyze (Table 2). Therefore, succinyl-Ala-Ala-Ala-p-nitroanilide hydrolysis by the p45 metalloprotease is investigated. […] This effect further differentiates the p45 metalloprotease from other existing metalloproteases.
# [9] = system: FTC-labeled casein; experiment: Protease analysis using FTC-labeled casein; assay type: biochemical
# Protocol: Samples are incubated at room temperature for 30 minutes.
# [10] = system: Ac-Pro-Leu-Gly[2-mercapto-4-methyl-pentanoyl]-Leu-Gly-OEt; experiment: Hydrolysis of the thermolytic merc-peptide substrate (Ellman's reagent, 405 nm); assay type: biochemical
# Protocol: The thermolytic substrate Ac-Pro-Leu-Gly[2-mercapto-4-methyl-pentanoyl]-Leu-Gly-OEt (i.e. the merc-peptide) is also used to further characterize the p45 metalloprotease and B.t. thermolysin.
# Reaction mixtures contain 100 microliters of Ac-Pro-Leu-Gly[2-mercapto-4-methyl-pentanoyl]-Leu-Gly-OEt (1 mM, and 1 mM Ellman's reagent) and 100 microliters of either B.t. thermolysin or purified p45 metalloprotease (0-3 ug/ml) in sample buffer.
# [11] = system: succinylated casein; experiment: Casein hydrolysis, succinylated casein assay (QuantiCleave, BCA, 600 nm); assay type: biochemical; conditions: for maximum absorbance, casein hydrolysis: pH 6.5, room temperature, 40 minutes, FIG. 8
# Protocol: 400 ul of casein solution (Pierce) is added to small test tubes along with 100 ul of protease. The tubes are vortexed and incubated at room temperature for 40 minutes. The incubation (and assay) buffer is 0.1 M borate, 2 mM CaCl2, and 10 mM dimethylglutarate, pH 6.5. At the end of the incubation, 60 microliters of trichloroacetic acid (100% w/v) is added, and the tubes are vortexed and centrifuged for 1 minute at 5000×g. 20 microliters of the resulting supernatant is placed into a microtiter plate well with 200 microliters of the BCA working reagent (Pierce). The plates are then vortexed and incubated another 30 minutes, then read at 600 nm using a Biomek 1000 microtiter plate reader.
# 400 microliters of casein solution (Pierce) are added to small test tubes along with 100 microliters of protease in buffer "A" (0.1M borate, 2 mM CaCl2 and 10 mM dimethylglutaric acid). At the end of the incubation, 60 microliters of trichloroacetic acid (100% w/v) is added, and the tubes are vortexed and centrifuged for 1 minute at 5000×g. 20 microliters of the resulting supernatant is placed into a microtiter plate well with 200 microliters of the BCA working reagent (Pierce). The plates are then vortexed and incubated another 30 minutes, then read at 600 nm using a Biomek 1000 microtiter plate reader.
# [12] = system: FAGLA: N-(3-[2-Furyl]Acryloyl)-Gly-Leu amide; experiment: FAGLA hydrolysis (345 nm); assay type: biochemical
# Protocol: The thermolytic substrate FAGLA: N-(3-[2-Furyl]Acryloyl)-Gly-Leu amide is used to further characterize the p45 metalloprotease and B.t. thermolysin. Reaction mixtures contain 100 microliters of N-(3-[2-Furyl]Acryloyl)-Gly-Leu amide (FAGLA) (2 mM) and 100 microliters of various concentrations of either thermolysin (Boehringer Mannheim) or purified p45 metalloprotease. Thermolytic activity is determined as a decrease in absorbance at 345 nm on the recording spectrometer for one minute(Shimadzu, UV160U). The linear range of the assay for thermolysin is 10-500 ug/ml thermolysin in the assay mix.
# [13] = system: pro-trypsin-like F. oxysporum protease; experiment: Processing of pro-trypsin-like F. oxysporum protease to active trypsin-like protease
# Protocol: Activatable pro-trypsin-like F. oxysporum protease is determined in microtiter wells as released trypsin-like F. oxysporum protease (tryptic) activity from pro-trypsin-like F. oxysporum protease after a 40 minute pre-incubation at room temperature with purified Fusarium oxysporum metalloprotease (approximately 6 ug).
# Processed pro-trypsin-like F. oxysporum protease(i.e. mature trypsin-like F. oxysporum protease) activity is determined directly from microtiter plates containing the pre-incubated metalloprotease/pro-trypsin-like F. oxysporum protease cocktail (total volume=100 microliters), and 100 microliters of substrate (87 mg/ml.L-BAPNA stock in DMSO diluted 50-fold in sample buffer). Again, active trypsin-like F. oxysporum protease is determined as an increase in absorbance at 405 nm immediately after L-BAPNA addition.
# Purified pro-trypsin-like F. oxysporum protease is added to fresh A. oryzae fermentation broths containing the recombinant p45 metalloprotease (approximately 90 mg/L) and incubated for either 1, 2, or 3 hours at room temperature. Levels of pro-trypsin-like F. oxysporum protease in the incubation mixtures range from 100 ug/ml to 13 mg/ml.
# Purified pro-trypsin-like F. oxysporum protease (100 ug/ml) is added to various amounts of either purified recombinant p45 metalloprotease or purified B.s. metalloprotease.
# [14] = system: FTC-labeled casein; experiment: Thermal stability profile, FTC-casein hydrolysis; assay type: biochemical; conditions: 15 minutes at various temperatures, Universal buffer pH 7; FIG. 9
# Protocol: Purified p45 metalloprotease or B.t. thermolysin (Boehringer Mannheim) (50 microliters, 0.1 mg/ml) are incubated at various temperatures for 15-minutes in Universal buffer, pH 7. Ten microliters of sample are then added to 30 microliters of Universal pH buffer (pH 7) and 20 microliters of FTC-labeled casein and are incubated at 37° C. for 1 hour. 150 microliters of 5% TCA is added to acidify and precipitate casein (1 hour at room temperature). […] Samples are then analyzed on the fluorimeter (slit width=2.5 nm; excitation freq.=490 nm; emission freq.=525 nm; integration time=2 sec).
# [15] = system: pro-trypsin-like Fusarium oxysporum protease; experiment: Proteolytic enzyme assay: tryptic activity released from pro-trypsin-like protease, L-BAPNA, 405 nm; assay type: biochemical
# Protocol: as §1, §2, §3
molecule,measurement,setting,value
dispase (enzyme),"maximum absorbance, succinylated casein hydrolysis",[1],0.47 absorbance
p45 metalloprotease from Fusarium oxysporum (enzyme),Specific Activity (fluorescence released from FTC-casein),[2],170 FU/min·mg
same,"maximum absorbance, succinylated casein hydrolysis",[3],0.3 O.D
same,"Specific Activity (released trypsin activity, L-BAPNA) (g trypsin/min*mg)",[4],1.2
O=C(O)CN(CCN(CC(=O)O)CC(=O)O)CC(=O)O [EDTA],metalloprotease activity upon addition of the inhibitor,[5]; inhibitor 1 mM,Analogous results
[Zn+2] [Zn^2+],"reactivation of the 1,10-phenanthroline-inhibited Fusarium metalloprotease",[5]; addition of 1 mM Zn2+,full reactivation
neutral metalloprotease from Bacillus stearothermophilus (enzyme),Specific Activity (fluorescence released from FTC-casein),[2],220 FU/min·mg
same,"maximum absorbance, succinylated casein hydrolysis",[3],0.47 O.D.
same,"Specific Activity (released trypsin activity, L-BAPNA) (g trypsin/min*mg)",[4],0.018
CC(C)C[C@H](NP(=O)(O)O[C@@H]1O[C@@H](C)[C@H](O)[C@@H](O)[C@H]1O)C(=O)N[C@@H](Cc1c[nH]c2ccccc12)C(=O)O [phosphoramidon],"type of inhibition, B.s. Thermolysin",[6],Noncompetitive
same,Ki,[6],26 µM
same,Ki,[7],1 µM
same,"type of inhibition, p45 Maturase",[7],Noncompetitive
[Cl][Cd][Cl] [CdCl2],"type of inhibition, B.s. Thermolysin",[6],Competitive
same,Ki,[6],2 µM
same,"type of inhibition, p45 Maturase",[7],Noncompetitive
same,Ki,"[7]; read-out: Inhibition Constant (Ki), p45 Maturase",67 µM
Thermolysin from Bacillus thermoproteolyticus (enzyme) ITGTSTVGVGRGVLGDQKNINTTYSTYYYLQDNTRGNGIFTYDAKYRTTLPGSLWADADNQFFASYDAPAVDAHYYAGVTYDYYKNVHNRLSYDGNNAAIRSSVHYSQGYNNAFWNGSQMVYGDGDGQTFIPLSGGIDVVAHELTHAVTDYTAGLIYQNESGAINEAISDIFGTLVEFYANKNPDWEIGEDVYTPGISGDSLRSMSDPAKYGDPDHYSKRYTGTQDNGGVHINSGIINKAAYLISQGGTHYGVSVVGIGRDKLGKIFYRALTQYLTPTSNFSQLRAAAVQSATDLYGSTSQEVASVKQAFDAVGVK,"maximum absorbance, succinylated casein hydrolysis",[1],0.47 absorbance
"B.s. Thermolysin: thermolysin / neutral metalloprotease from Bacillus stearothermophilus (B.s.) (protein, UniProt P43133 236-551, looked up) Thermolysin: ITGTSTVGVGRGVLGDQKNINTTYSTYYYLQDNTRGNGIFTYDAKYRTTLPGSLWADADNQFFASYDAPAVDAHYYAGVTYDYYKNVHNRLSYDGNNAAIRSSVHYSQGYNNAFWNGSQMVYGDGDGQTFIPLSGGIDVVAHELTHAVTDYTAGLIYQNESGAINEAISDIFGTLVEFYANKNPDWEIGEDVYTPGISGDSLRSMSDPAKYGDPDHYSKRYTGTQDNGGVHINSGIINKAAYLISQGGTHYGVSVVGIGRDKLGKIFYRALTQYLTPTSNFSQLRAAAVQSATDLYGSTSQEVASVKQAFDAVGVK","Specific Activity, substrate Ala-Ala-Ala-pNA",[8],< 2 pmol pNA/min*mg
same,hydrolysis of succinyl-Ala-Ala-Ala-p-nitroanilide,"[8]; substrate 4.4 mM in 0.1M Tris, pH 8","neither, the p45 metalloprotease nor the B.s. thermolysin would hydrolyze"
same,"Specific Activity, substrate FTC-Labelled Casein",[9],220 FU/min*mg
same,"Specific Activity, substrate merc-peptide",[10],2.9 AU/min*mg
same,"Specific Activity, substrate Succinylated Casein (maximal level)",[11],0.47 O.D.
same,"maximum absorbance, casein hydrolysis",[11],~0.47 O.D. units
same,"Specific Activity, substrate FAGLA",[12],227 -AU/sec*mg
same,"Specific Activity, substrate pro-trypsin",[13],.018 g trypsin/min*mg
"thermolysin: Thermolysin from Bacillus thermoproteolyticus (B.t.), purchased from Boehringer Mannheim (protein) ITGTSTVGVGRGVLGDQKNINTTYSTYYYLQDNTRGNGIFTYDAKYRTTLPGSLWADADNQFFASYDAPAVDAHYYAGVTYDYYKNVHNRLSYDGNNAAIRSSVHYSQGYNNAFWNGSQMVYGDGDGQTFIPLSGGIDVVAHELTHAVTDYTAGLIYQNESGAINEAISDIFGTLVEFYANKNPDWEIGEDVYTPGISGDSLRSMSDPAKYGDPDHYSKRYTGTQDNGGVHINSGIINKAAYLISQGGTHYGVSVVGIGRDKLGKIFYRALTQYLTPTSNFSQLRAAAVQSATDLYGSTSQEVASVKQAFDAVGVK","maximum absorbance, casein hydrolysis",[11],~0.47 O.D. units
same,optimum temperature for hydrolysis of FTC-casein,[14],80 °C
Pro-trypsin-like F. oxysporum protease: recombinant proenzyme form of the trypsin-like F. oxysporum protease (protein) APQEIPNIVGGTSASAGDFPFIVSISRNGGPWCGGSLLNANTVLTAAHCVSGYAQSGFQIRAGSLSRTSGGITSSLSSVRVHPSYSGNNNDLAILKLSTSIPSGGNIGYARLAASGSDPVAGSSATVAGWGATSEGGSSTPVNLLKVTVPIVSRATCRAQYGTSAITNQMFCAGVSSGGKDSCQGDSGGPIVDSSNTLIGAVSWGNGCARPNYSGVYASVGALRSFIDTYA,tryptic activity of the sample alone,[15]; sample alone,do not contain any tryptic activity
same,Tryptic Activity,"[15]; without 1,10-phenanthroline, without Zn2+",1.26 Δ Abs/min × 10^-4
